Measured values published in patent US20040082509A1.

Molecular target: JNKs
Experiment: cell-based or functional assay

Row | Binder | phosphorylation of GST-jun (1-89) by JNKs pulled down from UV-irradiated HeLa or IL-1β treated βTC-3 cell extracts; peptide at 25 µM [µM]
1 | GRKKRRQRRRPPDTYRPKRPTTLNLFPQVPRSQDT [L-TAT-IB1 peptide] | 25
2 | GRKKRRQRRRPPEEPHKHRPTTLRLTTLGAQDS [L-TAT-IB2 peptide] | 25
